Assay results reported in PMC10579300.

Target: SHP2 (UniProt P35235)
Experiment: co-immunoprecipitation, Western blot
Details: reference: LAIR1 wild type; sites Y251,Y281

binding against the reference: weaker
Substance: LAIR1 (from UniProt Q6GTX8) LAIR1 Y251/281F
